“And” between values parts separate entries of the source, which are not always exact repeats. Equal values may be shown once. Where no end group is shown, it is not given here. The star is where a group is joined. Biotin = O=C1N[C@H]2[C@H](CS[C@H]2CCCCC(=O)*)N1
T1: biotin-Tub84B 438-450 (Drosophila)
T1 construct: C-terminal tail of Drosophila alpha-tubulin Tub84B; they would span 439-450 if the last residue is 450; source: synthetic peptide (LifeTein)
T1 peptide: Biotin-SGDGEGEGAEEY

T2: biotin-TUBA1A 440-451 (human)
T2 construct: C-terminal tail of human alpha-tubulin TUBA1A, amino acids 440-451, tyrosinated; source: synthetic peptide (Thermo Fisher Scientific)
T2 peptide: Biotin-VEGEGEEEGEEY

T3: biotin-Tba-1 437-449 (C. elegans)
T3 construct: C-terminal tail of C. elegans alpha-tubulin Tba-1, amino acids 437-449; source: synthetic peptide (LifeTein)
T3 peptide: Biotin-SNEGGNEEEGEEY

T4: biotin-TUBA1A 440-450 (human)
T4 construct: C-terminal tail of human alpha-tubulin TUBA1A, amino acids 440-450, without the terminal tyrosine (detyrosinated); source: synthetic peptide (Thermo Fisher Scientific)
T4 peptide: Biotin-VEGEGEEEGEE

T5: biotin-TUBA1A 440-451-[E]445 (human)
T5 construct: C-terminal tail of human alpha-tubulin TUBA1A, amino acids 440-451, printed VEGEG[E]EEGEEY with [E] the monoglutamylated residue 445; source: synthetic peptide (Thermo Fisher Scientific)
T5 peptide: Biotin-VEGEGE(Glu)EEGEEY

T6: 13C-15N isotope-labeled A1aY1 protein (thrombin-cleaved) (13C, 15N isotope-labeled)
T6 construct: A1aY1, an SSO7D mutant selected from a combinatorial yeast display library; source: E. coli Rosetta (DE3) grown in M9 media, purified (Ni-NTA, SEC, thrombin cleavage, SEC); not shown: His6, N-terminal, cleaved
T6 chain: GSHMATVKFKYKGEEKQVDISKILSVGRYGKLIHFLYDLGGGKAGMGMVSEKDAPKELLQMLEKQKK

B1: A1aY1 binder (designed binder)
chain: MATVKFKYKGEEKQVDISKILSVGRYGKLIHFLYDLGGGKAGMGMVSEKDAPKELLQMLEKQKK
notes: A1aY1, an SSO7D mutant selected from a combinatorial yeast display library; (His6, thrombin site, A1aY1); Protein used in the SPR steady-state titrations; The results say 'without any tags'; the methods describe the stored protein as 9.3 kD, which is the size with His6 and thrombin site, and tell of thrombin cleavage only for the NMR sample; also called tyrosination sensor; source: E. coli …
B2: nonbiotinylated Hs_TUBA1A peptide (peptide)
peptide: VEGEGEEEGEEY
notes: C-terminal tail of human alpha-tubulin TUBA1A, amino acids 440-451, tyrosinated, without biotin; also called tyrosinated peptide; α-tubulin CTT peptide; source: synthetic peptide (LifeTein)

What was measured:
Conditions in all cases: both partners purified
biotin-Tub84B 438-450 = target: T1, biotin-Tub84B 438-450; assay: SPR; steady-state binding assay, Biacore-T200; biotinylated peptides immobilized on a streptavidin (SA) sensor chip at 100-300 response units; A1aY1 titrated from 0.031 to 200 µM; 1x HBS-P+ (10 mM Hepes, 150 mM NaCl, 0.05% surfactant P20), 30 µl/min; 1:1 binding considered, one site total fit
biotin-TUBA1A 440-451 = target: T2, biotin-TUBA1A 440-451; assay: as above
biotin-Tba-1 437-449 = target: T3, biotin-Tba-1 437-449; assay: as above
biotin-TUBA1A 440-450 = target: T4, biotin-TUBA1A 440-450; assay: as above
[1] = target: T5, biotin-TUBA1A 440-451-[E]445; assay: as above
[2] = target: T6, 13C-15N isotope-labeled A1aY1 protein …; assay: NMR titration; 1H-15N HSQC of 13C,15N-labeled A1aY1 with nonbiotinylated peptides added at 0.5 to 7 equivalents (Hs_TUBA1A) or 1 to 4 equivalents (Hs_TUBA1A-ΔY); 25°C

Binder | Kd (biotin-Tub84B 438-450) | Kd (biotin-TUBA1A 440-451) | Kd (biotin-Tba-1 437-449) | Kd (biotin-TUBA1A 440-450) | Kd [1] | binding result [2]
B1 | 4.1 µM and 4 µM | 1.6 ± 0.3 µM | 1 ± 0.2 µM | > 60 µM | 13.6 ± 4.5 µM | –
B2 | – | – | – | – | – | binds
